Test results from the nanobody polyreactivity screen of Harvey et al. (2022).

Experiment: yeast display, Sf9 membrane polyspecificity reagent, FACS + sequencing; frameworks hold sequencing errors
Procedure, shortened: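 Genes from sorted yeast were amplified by colony PCR, read by MiSeq 2 × 250 sequencing and filtered on CDR length. These cells carried a synthetic nanobody library in Saccharomyces cerevisiae BJ5465 and were sorted by FACS into low and high (top ~1%) gates on anti-HA and streptavidin fluorescence. Polyreactivity is labelled according to the gate of origin.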

Row | Sequence | polyreactivity (PSR sort gate)
1 | QVQLVESGGGLVQAGVSLRLSCAASGTIFYTYTMGWYRQAPRKERELVATIRSTGSTDYADSVKGRFTISRDNAMNTVYLQMNSLKREDTAVYYCNADRFGDYDYWGQGTQVTVSS | low polyreactivity
2 | QVQLVESGGGLVQAGVSLRLSCAAYGFTFTGYAMGWYRQAPGKEMEFVAAITTGGGSTYYADSVKGRFTISRDNAKNTVYFQMNSLKPEDTAVYYCAKSRQYIGGFDYWGQGTQVTVSS | high polyreactivity
3 | QVQLVESGGGLVQAGVSLRLSCASTGLTFRYYAMGWYRQAPGKERELVAAISSGTGTYYADSVKGRFTISRDNAKNTVYLQMNSLKPEDTAVYYCAAVFFRARVIRGYNYWGQGTQVTVSS | high polyreactivity
4 | QVQLVESGGGLVQAGVSLRLSCVASGLTQPYAMGWYRQAPGKESELVAGISWRGASTYYADSVKGRFTISRDNAKNTVYLQMNSLKPEDTAVSYCAARSTIQRRGYYGYRVGRSEYGYWGQGTQVTVSS | low polyreactivity
5 | QVQLVESGGGLVQARGILRLSCAASGSTFYTYTAMGWYRQAPGKERELVAAITWRGGSTYYADSVKGRFTIARDNAKNTVYLQMNSLKPQDSAVSSCAATLNRYGYDYWGQGTQVTVSS | high polyreactivity
6 | QVQLVESGGGLVQARGSLRLICAASGRTFEHNSMGWYRQAPGKERELVARITSGGRTYYADSVKGRFTISRDNAKNTVYLQMNSLKPEDTAVYYCATVGRGYDERHNYWGQGTQVTVSS | high polyreactivity
7 | QVQLVESGGGLVQARGSLRLICAASGSTFWYYAKGWYRQAPGKERELVAAITSGDSTYYADSVKGRFTISRDNAKNTVYLQMNSLKPEDTAVYYCAADLPWEDGYYYYSGYTEYDYWGQGTQVTVSS | low polyreactivity
8 | QVQLVESGGGLVQARGSLRLSCAASGFIFPSYAMGWYRQAPGKERELDAAITWNGGSTYYADSVKGRFTISRDNAKNTVYLQMNSLKPEDTAVYYCNKYYYYRDYGYWVQGTQVTVSS | high polyreactivity
9 | QVQLVESGGGLVQARGSLRLSCAASGGIFYRNAMGWYRQAPGKERELVAAITQSGGRTYYADSVKGRFTISRDNAKNTVYLQMNSLKPEDTADYYCAKSRYTPTGSLQLNYWGQGTQVTVSS | high polyreactivity
10 | QVQLVESGGGLVQARGSLRLSCAASGITFRYYAMGWYRQAPGKERELVASISWSGGSTYYADSVKGRFTISRDNAKNTVYLQMNSLKPEDTAVYYCAADILTFWYRYYYWGQGTQVTVSS | high polyreactivity
11 | QVQLVESGGGLVQARGSLRLSCAASGLTFITNTMGWYRQAPGKERELVAVISYSGTSTYYADSVKGRFTISRDYAKNTVYLQMNSLKPEDTAVYYWDASYLGSYRYSYYYWGQGTQVTVSS | high polyreactivity
12 | QVQLVESGGGLVQARGSLRLSCAASGLTFRWYSMGWYRQAPGKERELVAAISSGGRTYYADSVKGRFTISRDNAKNTVYLQMNSLKPEDTAVYYCSKRTLDYGFGSYGREYWGEGTQVTVSS | high polyreactivity
13 | QVQLVESGGGLVQARGSLRLSCAASGRIFPVNTMGWYRQAPGKERELVAAITSGGGTYYADSVKGRFTISRDNAKNTVYFQMNSLKPEDTAVYYWTAPEGRKPYDSWGQGTQVTVSS | low polyreactivity
14 | QVQLVESGGGLVQARGSLRLSCAASGRIFSKYAMGWYRQAPGKERELVAAISSSGVSTYYADSVKGRFTISRDNAKNTVYLQMNSLKPEDTAVYYCYKRTSPKRFDYWGQGTQVTVSS | high polyreactivity
15 | QVQLVESGGGLVQARGSLRLSCAASGRIFTTYAMGWYRQAPGKESELVAAISQTGGSTYYADSVKGRFTISRDNAKNTVYLKMNSLKPEDTAVYYCNAGPAGYYDDDYWGQGTQVTVSS | low polyreactivity
16 | QVQLVESGGGLVQARGSLRLSCAASGRILKRYAMGWYRQAPGKERELVAAISYGGGSTDYADSVKGRFTISRDNAKNTVYLQMNSLKPEDTAVYYCAAKVRYYLSLRGSTTRRDDYYWGQGTQVTVSS | low polyreactivity
17 | QVQLVESGGGLVQARGSLRLSCAASGSIFGSYAMGWYRQAPGKDSELVADISCGGSTNYADSVKGRFTISRDNAKNTVYLQMNSLKPDDTAVYYCNADDPAGYLYLWGSWLESDYWGQGTQVTVSS | low polyreactivity
18 | QVQLVESGGGLVQARGSLRLSCAASGSTFAYNAMGWYRKAPGKERELVADITSTGTSTYADSVKGRFTISRDNAKNTVYLQMNSLKPEDTAVYYCNADYDSTYVGYDYWGQGTQVTVSS | low polyreactivity
19 | QVQLVESGGGLVQARGSLRLSCAASGSTFDSNAMGCYRQAPGKERELVAAITRGGSTNYADSVKGRFTISRDNAKNTVYLQMNSLNPEDTAVYYCAAASETLGSATYGSGYDYWGQGTQVTVSS | low polyreactivity
20 | QVQLVESGGGLVQARGSLRLSCAASGSTFGRYAMGSYRQAPGIERELVAAISLGTTTNYADSVKGRFTISRDNAKNTVYLQMNSLKPEDTAVSYCAADQPSKRYYYWGQGTQVTVSS | low polyreactivity
21 | QVQLVESGGGLVQARGSLRLSCAASGSTFIPNTMGWSRQAPGKERELVAAISRRGGSKNYADSVKGRFTISRDNAKNTVYLQMNSLNPEDTAVYYCAAASPRRYRYDYWGQGTQVTVSS | high polyreactivity
22 | QVQLVESGGGLVQARGSLRLSCAASGSTFSVYAMGWYRQAPGKERELVAAITDVDNTYYADSVKGRFTISRDNAKNTVYLQRNSLKPEDTAVYYCDARYYQYYEYYHWGQGTQVTVSS | low polyreactivity

Row | Sequence | polyreactivity (PSR sort gate)
23 | QVQLVESGGGLVQARGSLRLSCAASGSTFYPYAMGWYRQAPGKERELVAAISSGGSTSYADSVKGRFTISRDNAKNTVYLQMNSLKPEDTAVYYCNASSPGAVPVYDYDYWGQGTQVTVSS | low polyreactivity
24 | QVQLVESGGGLVQARGSLRLSCAAYRITFGWYAMGWYRQAHAKERELVASISSSGSTNYADSVKGRFTISRDNAKNTVYLQMNSLKPEDTAVYYCNKDYRRRHYYIYVIEGDYWGQGTQVTVSS | low polyreactivity
25 | QVQLVESGGGLVQARGSLRLSCPASGITFARYAMEWSRQAPGKERELVAAISYGGGSTYYADSVKGRFTISRDNAKNTVYLQMNSLKPEDTSVYYCNNVPRKSYGYWGQGTQVTVSS | high polyreactivity
26 | QVQLVESGGGLVQARGSLRLSCPASGSIFSLNAMGWYRQAPGKERELVASISRGGSTNYADSVKGRFTISRDNAKNTVYLQMNSLKPEDTAVYYCAAYWYYYTKSQSSYRFDYWGQGTQVTVSS | low polyreactivity
27 | QVQLVESGGGLVQARGSLRLSSAASGYIFYHYAMGWYRQSPGKERELVAAISSGGGSTYYADSVKGRFTISRDYAKNTVSLQINSLKPEDTAVYYCNAVRYYTKYDYWGQGTQVTVSS | high polyreactivity
28 | QVQLVESGGGLVQARGSLRLTCAASGSTFSENAMGWYRQAPGKERELVAAISRGGGRTYYADSVKGRFTISRDNAKNTVYLQMNSLKPEDTAVYYCNAGLPAGNHGYDYWGQGTQVTVSS | high polyreactivity
29 | QVQLVESGGGLVQARVSLRLICAASAIIIYDNAIGWYRQAPGKESEFVATINYSGDSTYYADSVKGRFTISRDNANNTVYLQMNSLKPEDTAVYYCATDGAWQYYWVYSHVYWGQGTQVTVSS | low polyreactivity
30 | QVQLVESGGGLVQAVGSHRLSCAASGFIFTSYAMGWYRQAPGKERELVAAITRSGGRTYYADSVKGRFTISRDNAKNTVYLQMNSLKPEDTAVYYCAAVTFYQSPARGYWGQGTQVTVSS | high polyreactivity
31 | QVQLVESGGGLVQAVGSLRLSCAASGFIFVGYAMGWYRQAPGKERELVAAITGGGTTYYADSVKGRFTISRDNAKNSVYLQMNSLKPEETAVYYCAKDRPRKDTQRWRYGHWGQGTQVTVSS | high polyreactivity
32 | QVQLVESGGGLVQAVGSLRLSCAASGFILGGYALGWYRQAPGKERELVAAISFSTVATYYADSVKGRFTNSRDNAKNTVYLQMNSLKPEDTAVYYCAARRLGYYRKVKELDYWGQGTQVTVST | high polyreactivity
33 | QVQLVESGGGLVQAVGSLRLSCAASGHIFCYYTMGRYRQAPGKERELVAGITIGGSTNYADSVKGRFTISRDNAKNTVYLQMNSLKPEDTAVYYCNVVKYVYIYSYWEYYYWGQGTQVTVSS | low polyreactivity
34 | QVQLVESGGGLVQAVGSLRLSCAASGIIFDSYAMGWYRQAPGKERELVAAITSRGGRTYYADSVKGRFTISRDNAKNTVYLQMNSLKPEDTAVYYCAADDGWIEPVYGYYEHEYWGQGTQVTVSS | low polyreactivity
35 | QVQLVESGGGLVQAVGSLRLSCAASGRIFDTYVMGWYRQAPGKEREMVAAISGSGGSTYYADSVKGRFTISRDNAKNTVYLQMNSLKPEDTAVYYCSAARRYYAYRYDYWGQGTQVTVSS | high polyreactivity
36 | QVQLVESGGGLVQAVGSLRLSCAASGRIFYSYAMGWYRQAPGKERELVAAITRGGSTSYADSVKGRFTISRDNAKNTVYLQMNSLKPDDTAVYYCATRQFYSYWKYYYWGQGTQVTVSS | high polyreactivity
37 | QVQLVESGGGLVQAVGSLRLSCAASGRTFSEYAMGWYRQAPGKERELVAAITGTGGSTYYADSVKGRFTISRDNAKNTVYLQMNSLKPEDTAVYFCAAEYYRYYFLSVSTDDYWGQGTQVTVSS | high polyreactivity
38 | QVQLVESGGGLVQAVGSLRLSCAASGSIFRRNVMGWYRPAPGKERELVATLTVGGSTYYADSVKGRFTISRDNAKNTVYLQMNSLIPEDTAVYYCAAYSPYLRSWYDYWGQGTQGTVSS | high polyreactivity
39 | QVQLVESGGGLVQAVGSLRLSCAASGSTFKAYAMGWYRQAPGKERELVAAITKSGGRTYYADSVKGRFTISRDNAKNTVYLQMNSLKPEDTAVYYCAAVFRPDSSAYRYYYLGQGTQVTVSS | high polyreactivity
40 | QVQLVESGGGLVQAVGSLRLSCAASGSTFNRYALGWYRQAPGKERQLVAAITVRGNTYYADSVKGRFTISRDNAKNTVYLQMNSLKPEDTAVYYCAARIYYLYKDRRLGYYWGQGTQVTVSS | high polyreactivity
41 | QVQLVESGGGLVQAVGSLRLSCAASGSTLVYYAMGWYRQAPGKERELVATITRSGGNTYYADSVKGRFTISRDNAKNTVYLQMNSLNPEDTAVYYWAARRLYGSQRGYWGQGTQVTVSS | high polyreactivity
42 | QVQLVESGGGLVQAVGSLRLSCAASGTISVANAMGWYRQAPGKERELVAVINTSGTRTYYADSVKGRFTISRDNAKNTVYLQMNSLKPEDTAVYYCAARLRGVQGYEYWGQGTQVTVSS | low polyreactivity
43 | QVQLVESGGGLVQAVGSLRLSCAASVSTFRHYAMGWYRQAPGKERELVAAISSTGGSTYYADSVKGRFTISRDNAKNTVYLQMNSLKPEDTAVYYCAARRLYWGQGTQVTVSS | high polyreactivity
